Laboratory results from US20220315920.

Test system: TfuCascade (Cse2 N23A, Cas7-NLS) + TfuCas3 (Type I-E) Cse2 N23A (Thermobifida fusca)
Assay: cell_activity
Details: PAM AAG; for activity (% editing (6-TG resistance)): HAP1 cells RNP

Q: “AUGGACCGCUGGACAUCACCUCCCACAACGAGGACUACACGUGAGCCCCACGCACGUGGG / AAGCTGGACATCACCTCCCACAACGAGGACTACAC / GTGTAGTCCTCGTTGTGGGAGGTGATGTCCAGCTT [crRNA tdTomato ; tdTomato target (PAM+protospacer)]” was tested. Which activity (% tdTomato-negative cells) (hESC RNP) did it give?
A: 2.7

Q: With “AUGGACCGACCUUGCACUACCUGUGGCUUCCAUUUUCCUGGUGAGCCCCACGCACGUGGG / AAGACCTTGCACTACCTGTGGCTTCCATTTTCCTG / CAGGAAAATGGAAGCCACAGGTAGTGCAAGGTCTT [crRNA HPRT-G1 ; HPRT target G1 (PAM+protospacer)]” as the sequence, how does the activity (% editing (6-TG resistance)) read?
A: 67

Q: “AUGGACCGUCGAUGCCCUUCAGCUCGAUGCGGUUCACCAGGUGAGCCCCACGCACGUGGG / AAGTCGATGCCCTTCAGCTCGATGCGGTTCACCAG / CTGGTGAACCGCATCGAGCTGAAGGGCATCGACTT [crRNA GFP-G2 ; EGFP target G2 (PAM+protospacer)]” was tested. Which activity (% EGFP-negative cells) (hESC RNP) did it give?
A: 2.7

Q: Which activity (% EGFP-negative cells) (hESC RNP electroporation, 80 pmol Cascade, 20 pmol Cas3, 7.3% in FIG. 1D) does the source give for “AUGGACCGGCUACGUCCAGGAGCGCACCAUCUUCUUCAAGGUGAGCCCCACGCACGUGGG / AAGGCTACGTCCAGGAGCGCACCATCTTCTTCAAG / CTTGAAGAAGATGGTGCGCTCCTGGACGTAGCCTT [crRNA GFP-G1 ; EGFP target G1 (PAM+protospacer)]” here?
A: 13.1

Q: For “AUGGACCGAAGCCGAGGCUCCCCCAGCGAAGCCCCUUUCCGUGAGCCCCACGCACGUGGG / AAGAAGCCGAGGCTCCCCCAGCGAAGCCCCTTTCC / GGAAAGGGGCTTCGCTGGGGGAGCCTCGGCTTCTT [crRNA HPRT-G2 ; HPRT target G2 (PAM+protospacer)]”, which activity (% editing (6-TG resistance)) is on record?
A: 32
